Laboratory results from patent publication US20220389097A1 (Genentech, published 2022).
Positions count from the first letter of the chain named. In names and notes the source's numbering stands. One block for each binder: values may come before it.

Experiments:
human TREM2 on cells [1] = target: T1, human TREM2 on cells (human, UniProt Q9NZC2 19-230); assay: cell-based or functional assay
T1 sequence: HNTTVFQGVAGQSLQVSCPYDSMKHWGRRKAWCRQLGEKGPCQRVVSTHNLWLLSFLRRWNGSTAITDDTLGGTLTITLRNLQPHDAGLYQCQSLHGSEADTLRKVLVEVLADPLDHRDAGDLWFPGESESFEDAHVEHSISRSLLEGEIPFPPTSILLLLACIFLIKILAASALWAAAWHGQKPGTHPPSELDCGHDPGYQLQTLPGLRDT

human TREM2 on cells [2] = target: T1, human TREM2 on cells; assay: cell-based or functional assay; remark: listed apart in the source
human TREM2-Fc [3] = target: T2, human TREM2-Fc (human, UniProt Q9NZC2 19-174); assay: SPR (Biacore T200), 37 C; TREM2-Fc on protein A chip, soluble Fab
T2 construct: also called hTREM2; not shown: Fc part (captured by anti-human IgG1 Fc or protein A)
T2 sequence: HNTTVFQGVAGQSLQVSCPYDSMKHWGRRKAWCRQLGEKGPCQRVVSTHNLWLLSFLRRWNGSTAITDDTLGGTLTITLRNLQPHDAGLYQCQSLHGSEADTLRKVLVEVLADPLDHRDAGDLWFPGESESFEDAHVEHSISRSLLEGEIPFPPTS
Procedure: (§1) Affinity of h3.10C2.v1 (FIGS. 9A-B) for human and cynomolgus TREM2 was determined by SPR in a Biacore™ T200 apparatus in two formats, both at 37° C. In one format TREM2-Fc was immobilized on protein A chips and soluble anti-TREM2 Fab fragments used as ligands. In the second format, anti-TREM2 IgG was immobilized on anti-CH1 Biacore™ chips and used soluble monomeric TREM2 as ligand.

cynomolgus TREM2-Fc [4] = target: T3, cynomolgus TREM2-Fc (cynomolgus monkey, UniProt A0A2K5UY34 49-204); assay: as above
T3 construct: also called cyno TREM2; not shown: Fc part
T3 sequence: T2 sequence with A10E, W60R, L89F, F125V
Procedure: as §1

[5] = target: T4, soluble monomeric human TREM2 (human, UniProt Q9NZC2 19-174, limits assumed); assay: SPR (Biacore T200), 37 C; IgG on anti-CH1 chip, soluble monomeric TREM2
T4 construct: Not the same as shed sTREM2; also called soluble monomeric TREM2
T4 sequence: T2 sequence

human TREM2-Fc [6] = target: T2, human TREM2-Fc; assay: SPR (Biacore T200), 37 C; TREM2-Fc on protein A chip, Fab in solution
Procedure: The humanized heavy chain variants were tested for affinity by combining the heavy chain variants with the 3.10C2-L1 light chain. These variants were expressed as Fab fragments, purified by protein A chromatography, and tested for affinity for TREM2-Fc coated on a protein A chip with a Biacore™ T200 apparatus.

human TREM2-Fc [7] = target: T2, human TREM2-Fc; assay: SPR (Biacore T200), 37 C; TREM2-Fc on anti-human IgG1 Fc chip, Fab in solution
Procedure: (§2) Briefly, clone variants were expressed as Fab fragments and purified by anti-CH1 affinity chromatography followed by size exclusion chromatography. TREM2-Fc antigens were immobilized on anti-human IgG1 Fc Biacore™ chips and soluble Para.09 variant and 3.10C2 clone Fab fragments were bound to immobilized TREM2 at 37° C.

cynomolgus TREM2-Fc [8] = target: T3, cynomolgus TREM2-Fc; assay: as above
Procedure: as §2

B1: hPara.09.v2 Q100P/V104L (antibody, human IgG1, V domains shown)
VH: EVQLVESGGGLVQPGGSLKLSCATSGFPFSNVWLHWVRQASGKGPEWVAHIKAKSDNYATYYAESVKGRFTISRDDSKNTVYLQMNSLKTEDTAVYYCTDILEYWGQGTLVTVSS
VL: DVVMTQSPLSLPVTPGEPASISCRSSRSLLTSKGITSLYWYLQKPGQSPQLLIYRMSNLASGIPDRFSGSGSGTDFTLKISRVEAEDVGVYYCAQFLVYPYTFGPGTKLEIK
EC50, Jurkat NFAT luciferase reporter cells (human TREM2 on cells [1]): 0.0232 µg/mL
IC50, TREM2 shedding inhibition in Jurkat-NFAT reporter cells (sTREM2 ELISA) (human TREM2 on cells [1]): 0.114 µg/mL
EC50, average X04 plaque intensity, human iPSC-derived microglia plaque assay (FIG. 24C) (human TREM2 on cells [2]): 40000 pM
EC50, survival of iPSC-derived microglia (FIG. 23E) (human TREM2 on cells [2]): 190 pM
EC50, total Abeta plaque intensity, human iPSC-derived microglia plaque assay (FIG. 24B) (human TREM2 on cells [2]): 770000 pM
phospho-SYK/total SYK relative to anti-gD control, iPSC-derived microglia, 1 hour (human TREM2 on cells [2]): 2 fold
phospho-SYK/total SYK relative to anti-gD control, iPSC-derived microglia, 4 hours (human TREM2 on cells [2]): > 10 fold

B2: hPara.09.v2 Fab (Fab, V domains shown)
VH: B1 VH
VL: B1 VL with P105Q, L109V
notes: also called Para.09-H5/3.27H7-L6
Kd (human TREM2-Fc [3]): 21 pM
koff (human TREM2-Fc [3]): 6.1e-05 s⁻¹
kon (human TREM2-Fc [3]): 3e+06 M⁻¹ s⁻¹
Kd (cynomolgus TREM2-Fc [4]): 22 pM
koff (cynomolgus TREM2-Fc [4]): 6.3e-05 s⁻¹
kon (cynomolgus TREM2-Fc [4]): 2.9e+06 M⁻¹ s⁻¹

B4: 3.10C2-H6/3.10C2-L1 Fab (Fab, V domains shown)
VH: EVQLVESGGGLVQPGGSLKLSCATSGFPFSNVWMHWVRQASGKGLEWVAHIKAKSDNYATYYAESVKGRFTISRDDSKNTIYLQMNSLKTEDTAVYYCTGLDYWGQGTTVTVSS
VL: DTVLTQSPLSLPVTPGEPASISCRSSKSLLGVRDITSLYWYLQKPGQSPQLLIYRMSNLASGVPDRFSGSGSETDFTLKISRVEAEDVGVYYCAQFLRYPYTFGQGTKVEIK
koff (human TREM2-Fc [6]): 0.0013 s⁻¹
kon (human TREM2-Fc [6]): 210000 M⁻¹ s⁻¹

B5: 3.10C2 IgG (rat variable regions; captured by anti-CH1 or anti-human Fab chips) (antibody, V domains shown)
VH: EVQLVETGGSLVQPGKSLKLTCATSGFPFSNVWMHWVRQSPEKQLEWIAHIKAKSDNYATYYAESVKGRFTISRDDSKTSIYLQMNSLKEDDTAIYYCTGLDYWGQGVMVTVSS
VL: B4 VL with S7A, P12S, P18S, Q47K, R82E, A85T, Q105P, V109L, I111L
notes: also called parental 3.10C2 clone; 3.10C2 control
Kd [5]: 120 pM
koff [5]: 9.6e-05 s⁻¹
kon [5]: 780000 M⁻¹ s⁻¹

B9: 3.10C2-H7/3.10C2-L1 Fab (Fab, V domains shown)
VH: B4 VH with I81A
VL: B4 VL
koff (human TREM2-Fc [6]): 0.018 s⁻¹
kon (human TREM2-Fc [6]): 1.2e+06 M⁻¹ s⁻¹

B12: Para.09 Fab with the 3.18E5 light chain (Fab, V domains shown)
VH: EVQLVETGGSLVQPGKSLRLTCATSGFPFSNVWLHWVRQSPEKHPEWVAHIKAKSDNYATYYAESVKGRFTISRDDSKSSVFLQMNSLKEEDTAIYYCTDILEYWGQGTLVTVSS
VL: DTVLTQAPLSVSVTPGESASISCRSNKSLLGIRDITSLYWYLQKPGKSPQLLIYRMSNLASGVPDRFSGSGSETDFTLKISEVETEDVGVYYCAQFLRYPYTFGPGTKLELK
notes: also called Para.09 (3.18E5)
Kd (human TREM2-Fc [7]): 5 pM
koff (human TREM2-Fc [7]): 2.8e-05 s⁻¹
kon (human TREM2-Fc [7]): 5.6e+06 M⁻¹ s⁻¹
Kd (cynomolgus TREM2-Fc [8]): 2.4 pM
koff (cynomolgus TREM2-Fc [8]): 8.9e-06 s⁻¹
kon (cynomolgus TREM2-Fc [8]): 3.8e+06 M⁻¹ s⁻¹

B14: Para.09 Fab with the 3.10C2 light chain (Fab, V domains shown)
VH: B12 VH
VL: B12 VL with V11L, N26S, I32V
notes: also called Para.09 (3.10C2)
Kd (human TREM2-Fc [7]): 3.8 pM
koff (human TREM2-Fc [7]): 2.7e-05 s⁻¹
kon (human TREM2-Fc [7]): 7.1e+06 M⁻¹ s⁻¹
Kd (cynomolgus TREM2-Fc [8]): 1.6 pM
koff (cynomolgus TREM2-Fc [8]): 7.8e-06 s⁻¹
kon (cynomolgus TREM2-Fc [8]): 4.8e+06 M⁻¹ s⁻¹

More lines, main results first:

EC50, Jurkat NFAT luciferase reporter cells (human TREM2 on cells [1]): 0.076 µg/mL
IC50, TREM2 shedding inhibition in Jurkat-NFAT reporter cells (sTREM2 ELISA) (human TREM2 on cells [1]): 0.975 µg/mL
EC50, average X04 plaque intensity, human iPSC-derived microglia plaque assay (FIG. 24C) (human TREM2 on cells [2]): 11000 pM
EC50, total Abeta plaque intensity, human iPSC-derived microglia plaque assay (FIG. 24B) (human TREM2 on cells [2]): 130000 pM
Kd [5]: 420 pM
koff [5]: 0.00035 s⁻¹
kon [5]: 840000 M⁻¹ s⁻¹
B3: h3.10C2.v1 hIgG1 N297G (antibody, V domains shown)
VH: B4 VH with V48I, N79T
VL: B1 VL with I63V, P105Q, L109V
notes: Human IgG1 N297G; also called h3.10C2.v1.huIgG1.N297G
EC50, survival of iPSC-derived microglia (FIG. 23E) (human TREM2 on cells [2]): 350 pM

Kd (human TREM2-Fc [3]): 190 pM
koff (human TREM2-Fc [3]): 0.00018 s⁻¹
kon (human TREM2-Fc [3]): 910000 M⁻¹ s⁻¹
Kd (cynomolgus TREM2-Fc [4]): 220 pM
koff (cynomolgus TREM2-Fc [4]): 0.0002 s⁻¹
kon (cynomolgus TREM2-Fc [4]): 910000 M⁻¹ s⁻¹
Kd (human TREM2-Fc [7]): 200 pM
koff (human TREM2-Fc [7]): 0.00017 s⁻¹
kon (human TREM2-Fc [7]): 850000 M⁻¹ s⁻¹
Kd (cynomolgus TREM2-Fc [8]): 220 pM
koff (cynomolgus TREM2-Fc [8]): 0.00015 s⁻¹
kon (cynomolgus TREM2-Fc [8]): 680000 M⁻¹ s⁻¹
koff (human TREM2-Fc [6]): 0.00019 s⁻¹
kon (human TREM2-Fc [6]): 720000 M⁻¹ s⁻¹
B6: 3.10C2 Fab (Fab, V domains shown)
VH: B5 VH
VL: B12 VL with V11L, N26S, I32V
notes: also called 3.10C2 (3.10C2); Rat3.10C2

koff (human TREM2-Fc [6]): 0.0059 s⁻¹
kon (human TREM2-Fc [6]): 520000 M⁻¹ s⁻¹
B7: 3.10C2-H2/3.10C2-L1 Fab (Fab, V domains shown)
VH: B4 VH with A49G
VL: B4 VL

koff (human TREM2-Fc [6]): 0.024 s⁻¹
kon (human TREM2-Fc [6]): 1.2e+06 M⁻¹ s⁻¹
B8: 3.10C2-H4/3.10C2-L1 Fab (Fab, V domains shown)
VH: B4 VH with T24A, V48I, A49G
VL: B4 VL

Kd (human TREM2-Fc [3]): 390 pM
koff (human TREM2-Fc [3]): 0.00057 s⁻¹
kon (human TREM2-Fc [3]): 1.5e+06 M⁻¹ s⁻¹
Kd (cynomolgus TREM2-Fc [4]): 430 pM
koff (cynomolgus TREM2-Fc [4]): 0.00062 s⁻¹
kon (cynomolgus TREM2-Fc [4]): 1.4e+06 M⁻¹ s⁻¹
B10: h3.10C2.v1 Fab (Fab, V domains shown)
VH: B4 VH with V48I, N79T
VL: B1 VL with I63V, P105Q, L109V
notes: also called 3.10C2-H1/3.27H7-L6

Kd (human TREM2-Fc [3]): 15 pM
koff (human TREM2-Fc [3]): 3.5e-05 s⁻¹
kon (human TREM2-Fc [3]): 2.3e+06 M⁻¹ s⁻¹
Kd (cynomolgus TREM2-Fc [4]): 18 pM
koff (cynomolgus TREM2-Fc [4]): 4.1e-05 s⁻¹
kon (cynomolgus TREM2-Fc [4]): 2.3e+06 M⁻¹ s⁻¹
Kd (human TREM2-Fc [7]): 4.2 pM
koff (human TREM2-Fc [7]): 2.7e-05 s⁻¹
kon (human TREM2-Fc [7]): 6.3e+06 M⁻¹ s⁻¹
Kd (cynomolgus TREM2-Fc [8]): 2.5 pM
koff (cynomolgus TREM2-Fc [8]): 1.2e-05 s⁻¹
kon (cynomolgus TREM2-Fc [8]): 4.8e+06 M⁻¹ s⁻¹
B11: Para.09 Fab with the 3.27H7 light chain (Fab, V domains shown)
VH: B12 VH
VL: DVVLTQAPLSVSVTPGESASISCRSSRSLLTSKGITSLYWYLQKPGMSPHLLIYRMSNLASGIPDRFSGSGSETDFTLKISEVEPEDVGVYYCAQFLVYPYTFGAGTKLELK
notes: Fab fragment; also called Para.09 (3.27H7); Para.09-L27H7

Kd (human TREM2-Fc [7]): 1.1 pM
koff (human TREM2-Fc [7]): 5.8e-06 s⁻¹
kon (human TREM2-Fc [7]): 5.1e+06 M⁻¹ s⁻¹
Kd (cynomolgus TREM2-Fc [8]): 2 pM
koff (cynomolgus TREM2-Fc [8]): 7.9e-06 s⁻¹
kon (cynomolgus TREM2-Fc [8]): 3.9e+06 M⁻¹ s⁻¹
B13: Para.09 Fab with the 3.50G1 light chain (Fab, V domains shown)
VH: B12 VH
VL: B12 VL with Y41F, K112Q
notes: also called Para.09 (3.50G1)
